Test results: US20220411483A1 (Chugai, published 2022)

Key:
mouse FcγRI = biological target: T1, mouse FcγRI (mouse, UniProt P26151 25-297, limits assumed); experiment: SPR
T1 construct: also called mFcγRI
T1 sequence (looked up): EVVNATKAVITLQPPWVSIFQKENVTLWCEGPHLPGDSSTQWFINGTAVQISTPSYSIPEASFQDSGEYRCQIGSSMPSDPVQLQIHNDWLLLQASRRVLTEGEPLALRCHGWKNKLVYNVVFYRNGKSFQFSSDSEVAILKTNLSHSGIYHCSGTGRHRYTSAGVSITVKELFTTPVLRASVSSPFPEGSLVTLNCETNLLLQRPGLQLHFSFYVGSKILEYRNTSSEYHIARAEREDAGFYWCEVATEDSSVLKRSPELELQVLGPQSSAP

mouse FcγRIV = biological target: T2, mouse FcγRIV (mouse, UniProt A0A0B4J1G0 21-203); experiment: SPR
T2 construct: also called mFcγRIV
T2 sequence: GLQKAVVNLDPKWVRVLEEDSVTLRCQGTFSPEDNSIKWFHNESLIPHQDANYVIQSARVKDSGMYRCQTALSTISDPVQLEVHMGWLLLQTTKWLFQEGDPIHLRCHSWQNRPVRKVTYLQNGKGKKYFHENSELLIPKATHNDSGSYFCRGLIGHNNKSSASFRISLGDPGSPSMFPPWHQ

human IgE [1] = biological target: T3, human IgE (human); experiment: SPR Biacore T200, 37 C; pH dependency
T3 construct: recombinant antigen; its variable region is from an anti-human glypican 3 antibody; also called hIgE
T3 sequence (heavy, as listed by the source, chain 1 of 2, other chains not shown): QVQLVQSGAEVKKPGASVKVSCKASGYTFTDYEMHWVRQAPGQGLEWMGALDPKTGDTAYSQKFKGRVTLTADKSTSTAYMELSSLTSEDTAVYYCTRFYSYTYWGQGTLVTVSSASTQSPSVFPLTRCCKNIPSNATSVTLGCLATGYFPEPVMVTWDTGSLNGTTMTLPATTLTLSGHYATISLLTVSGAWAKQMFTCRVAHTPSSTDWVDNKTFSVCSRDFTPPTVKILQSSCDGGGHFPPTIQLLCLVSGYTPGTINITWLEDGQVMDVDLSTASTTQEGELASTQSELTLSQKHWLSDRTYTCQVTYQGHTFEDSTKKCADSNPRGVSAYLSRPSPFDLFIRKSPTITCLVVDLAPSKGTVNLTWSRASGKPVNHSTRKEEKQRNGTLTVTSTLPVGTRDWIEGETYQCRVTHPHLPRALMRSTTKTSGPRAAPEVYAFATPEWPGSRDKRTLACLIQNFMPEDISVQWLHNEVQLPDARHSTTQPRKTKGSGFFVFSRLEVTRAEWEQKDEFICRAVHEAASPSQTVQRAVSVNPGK
Description: (§1) 1.2 mmol/1 CaCl₂/0.05% tween20, 20 mmol/l ACES, 150 mmol/l NaCl, pH 7.4 [0568] 1.2 mmol/1 CaCl₂/0.05% tween20, 20 mmol/l ACES, 150 mmol/l NaCl, pH 5.8 [0569] 3 μmol/l CaCl₂/0.05% tween20, 20 mmol/l ACES, 150 mmol/l NaCl, pH 5.8
(§2) A peptide produced by adding biotin to Lys present at the C terminus of a chemically synthesized human glypican 3 protein-derived sequence (SEQ ID NO: 12) (hereinafter written as “biotinylated GPC3 peptide”) added at an appropriate amount was immobilized onto Sensor chip SA (GE Healthcare) utilizing the affinity between streptavidin and biotin. An appropriate concentration of human IgE was injected and trapped with the biotinylated GPC3 peptide to immobilize human IgE onto the chip. […] Then, 10 mmol/L glycine-HCl (pH 1.5) was injected to regenerate the sensor chip. All of the assay for the interaction was performed at 37° C. Using Biacore T200 Evaluation Software (GE Healthcare), the assay results were analyzed by curve fitting to determine the binding rate constant ka (1/Ms) and dissociation rate constant kd (1/s). Dissociation constant KD (M) was calculated from the above constants.

human IgE [2] = biological target: T3, human IgE; experiment: SPR Biacore T200, 37 C; pH/Ca dependency
Description: as §1, §2

human IgE [3] = biological target: T3, human IgE; experiment: SPR Biacore T200, 37 C, hIgE on chip, antibody analyte; pH 5.8, 3 µM Ca
Description: as §1, §2

human IgE [4] = biological target: T3, human IgE; experiment: SPR Biacore T200, 37 C, hIgE on chip, antibody analyte; pH 5.8, 1.2 mM Ca
Description: as §1, §2

human IgE [5] = biological target: T3, human IgE; experiment: SPR Biacore T200, 37 C, hIgE on chip, antibody analyte; pH 7.4, 1.2 mM Ca
Description: as §1, §2

[6] = biological target: T4, FcγRIa extracellular domain with C-terminal His tag (human, UniProt P12314 16-292); experiment: SPR (Biacore), FcgR as analyte
T4 construct: also called FcgRIa
T4 sequence (P12314 16-292): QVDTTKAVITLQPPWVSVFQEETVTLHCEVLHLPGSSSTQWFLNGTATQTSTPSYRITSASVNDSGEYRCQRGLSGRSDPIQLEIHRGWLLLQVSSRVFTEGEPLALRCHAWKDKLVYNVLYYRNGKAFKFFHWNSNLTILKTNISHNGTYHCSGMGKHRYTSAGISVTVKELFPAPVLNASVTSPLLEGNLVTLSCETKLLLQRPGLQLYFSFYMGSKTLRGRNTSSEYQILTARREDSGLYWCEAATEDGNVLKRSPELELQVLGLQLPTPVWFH

[7] = biological target: T5, FcγRIIb extracellular domain with C-terminal His tag (human, UniProt P31994 43-217); experiment: SPR (Biacore), FcgR as analyte
T5 construct: extracellular domain; also called FcgRIIb
T5 sequence (looked up): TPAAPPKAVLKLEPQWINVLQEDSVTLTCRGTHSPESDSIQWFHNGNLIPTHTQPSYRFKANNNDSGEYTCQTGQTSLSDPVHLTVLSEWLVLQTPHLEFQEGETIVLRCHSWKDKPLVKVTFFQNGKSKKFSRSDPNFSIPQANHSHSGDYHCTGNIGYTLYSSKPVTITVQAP

[8] = biological target: T5, FcγRIIb extracellular domain with …; experiment: SPR (Biacore); KD of IL6R-B3/IL6R-L / KD of variant

B1: VH3/L (WT)-mIgG1 (antibody)
heavy: QVQLQESGPGLVKPSETLSLTCAVSGHSISHDHAWSWVRQPPGEGLEWIGFISYSGITNYNPSLQGRVTISRDNSKNTLYLQMNSLRAEDTAVYYCARSLARTTAMDYWGEGTLVTVSSAKTTPPSVYPLAPGSAAQTNSMVTLGCLVKGYFPEPVTVTWNSGSLSSGVHTFPAVLQSDLYTLSSSVTVPSSTWPSETVTCNVAHPASSTKVDKKIVPRDCGCKPCICTVPEVSSVFIFPPKPKDVLTITLTPKVTCVVVDISKDDPEVQFSWFVDDVEVHTAQTQPREEQFNSTFRSVSELPIMHQDWLNGKEFKCRVNSAAFPAPIEKTISKTKGRPKAPQVYTIPPPKEQMAKDKVSLTCMITDFFPEDITVEWQWNGQPAENYKNTQPIMDTDGSYFVYSKLNVQKSNWEAGNTFTCSVLHEGLHNHHTEKSLSHSPGK
light: not shown
notes: mouse IgG1 Fc region
binding result (mouse FcγRI): no binding | binding result (mouse FcγRIV): no binding

B2: clone 278 (IgG1) (antibody, V domains shown)
VH: QSLEESGGRLVTPGTPLTLTCTASGFSLSSYHMSWVRQAPGKGLEWIGVINSAGNTYYASWAKGRFTVSKTSTTVDLNLTSLTTEDTATYFCARYVFSSGSHDIWGPGTLVTVSS
VL: AYDMTQTPASVEVAVGGTVTIKCQASQSIGSWLAWYQQKPGQPPKELIYGTSTLESGVPSRFIGSGSGTEFTLTISGVECADAATYYCQQGYSEDNIDNAFGGGTEVVVKR
notes: pH-dependent anti-human IgE antibody with human IgG1 constant region
KD(pH 5.8, 1.2 mM Ca)/KD(pH 7.4, 1.2 mM Ca) (human IgE [1]): 842 ratio | KD(pH 5.8, 3 µM Ca)/KD(pH 7.4, 1.2 mM Ca) (human IgE [2]): 1640 ratio | Kd (human IgE [3]): 3900 nM | koff (human IgE [3]): 0.24 s⁻¹ | kon (human IgE [3]): 62000 M⁻¹ s⁻¹ | Kd (human IgE [4]): 2000 nM | koff (human IgE [4]): 0.23 s⁻¹ | kon (human IgE [4]): 120000 M⁻¹ s⁻¹ | Kd (human IgE [5]): 2.4 nM | koff (human IgE [5]): 0.0036 s⁻¹ | kon (human IgE [5]): 1.5e+06 M⁻¹ s⁻¹

B3: IL6R-BP198/IL6R-L (antibody, human IgG1, kappa, name in EU numbering)
heavy: QVQLQESGPGLVKPSETLSLTCAVSGHSISHDHAWSWVRQPPGEGLEWIGFISYSGITNYNPSLQGRVTISRDNSKNTLYLQMNSLRAEDTAVYYCARSLARTTAMDYWGEGTLVTVSSASTKGPSVFPLAPSSKSTSGGTAALGCLVKDYFPEPVTVSWNSGALTSGVHTFPAVLQSSGLYSLSSVVTVPSSSLGTQTYICNVNHKPSNTKVDKKVEPKSCDKTHTCPPCPAPDYLGGDSVFLFPPKPKDTLMISRTPEVTCVVVDVSDEDGEVKFNWYVDGVEVHNAKTKPREEQYNSTYRVVSVLTVLHQDWLNGKEYKCKVSNAALPKPIEKTISKAKGQPREPQVYTLPPSRDELTKNQVSLTCLVKGFYPSDIAVEWESNGQPENNYKTTPPVLDSDGSFFLYSKLTVDKSRWQQGNVFSCSVMHEALHNHYTQESLSLSP
light: not shown
notes: IgG1; alterations on IL6R-B3, EU numbering
Kd [6]: 11 nM | Kd [7]: 200 nM | Relative FcgRIIb-binding Activity [8]: 15.7 fold vs IL6R-B3/IL6R-L
